# B1: human 5-HT3A receptor with a C-terminal MYC/His-6 epitope tag (receptor, UniProt P46098 24-478, looked up)
# chain: RRSRNTTRPALLRLSDYLLTNYRKGVRPVRDWRKPTTVSIDVIVYAILNVDEKNQVLTTYIWYRQYWTDEFLQWNPEDFDNITKLSIPTDSIWVPDILINEFVDVGKSPNIPYVYIRHQGEVQNYKPLQVVTACSLDIYNFPFDVQNCSLTFTSWLHTIQDINISLWRLPEKVKSDRSVFMNQGEWELLGVLPYFREFSMESSNYYAEMKFYVVIRRRPLFYVVSLLLPSIFLMVMDIVGFYLPPNSGERVSFKITLLLGYSVFLIIVSDTLPATAIGTPLIGVYFVVCMALLVISLAETIFIVRLVHKQDLQQPVPAWLRHLVLERIAWLLCLREQSTSQRPPATSQATKTDDCSAMGNHCSHMGGPQDFEKSPRDRCSPPPPPREASLAVCGLLQELSSIRQFLEKRDEIREVARDWLRVGSVLDKLLFHIYLLAVLAYSITLVMLWSIWQYA
# notes: 5-HT3A subunit, human (Homo sapiens), GenBank AK304630.1; UniProt P46098 is printed for the human 5-HT3A subunit in the modelling methods; The subunit ran at 55 kDa on SDS-PAGE; also called 5-HT3A subunit; 5-HT3A-MYC/His6; source: tsA201 cells, transfected (pcDNA3.1, PEI); Triton X-100 solubilised MEMBRANE fraction; eluted from HisPur Ni-NTA agarose beads with 200 mM imidazole; not shown: MYC, …
# Molecular target: T1, rat P2X4 receptor with a C-terminal hemagglutinin (HA) tag (rat, UniProt P51577 1-388)
# T1 construct: P2X4 subunit, rat (Rattus norvegicus), GenBank U47031.1; UniProt P51577 is printed for the rat P2X4 subunit in the modelling methods; The subunit ran at 70 kDa on SDS-PAGE, which the authors put down to glycosylation; also called P2X4 subunit; source: tsA201 cells, transfected (pcDNA3.1, PEI); Triton X-100 solubilised MEMBRANE fraction; eluted from anti-HA agarose beads with HA peptide; not …
# T1 sequence (looked up): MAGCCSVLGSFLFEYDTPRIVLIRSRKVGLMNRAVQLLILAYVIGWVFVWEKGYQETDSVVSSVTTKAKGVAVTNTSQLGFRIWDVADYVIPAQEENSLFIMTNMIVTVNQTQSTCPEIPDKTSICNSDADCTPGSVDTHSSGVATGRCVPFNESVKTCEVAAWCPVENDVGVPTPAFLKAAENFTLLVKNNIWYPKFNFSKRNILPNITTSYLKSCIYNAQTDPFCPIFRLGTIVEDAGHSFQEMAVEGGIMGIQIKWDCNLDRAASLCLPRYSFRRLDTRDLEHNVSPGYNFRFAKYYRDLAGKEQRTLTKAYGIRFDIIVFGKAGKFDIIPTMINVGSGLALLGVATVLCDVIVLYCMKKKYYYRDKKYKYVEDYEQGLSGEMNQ
# Assay: atomic force microscopy imaging; complexes co-purified by the HA tag from co-transfected tsA201 cells, adsorbed onto mica for 15 min, dried and imaged in intermittent contact mode; histograms of molecular volumes fitted by a double Gaussian; without ATP, or with 100 μM ATP for 30 min in solution before adsorption
# Settings: partners not purified
binder,measurement,value
B1,stoichiometry N,1

# Source: article PMC7214622, “Function of P2X4 Receptors Is Directly Modulated by a 1:1 Stoichiometric Interaction With 5-HT3A Receptors” (Frontiers in Cellular Neuroscience, 2020)
